B1: IQUB (parent)
chain: KIREKEEWIKLDYHRRHNPKTNED

Variants of: B1
Assay: protein stability index of a GFP-peptide fusion (GPS, HEK-293T) (PSI 1-6); higher = more stable
Conditions: c terminus: a fixed tail appended
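Further: lentivirally expressed fusions sorted by FACS into six bins by GFP to DsRed ratio, PSI derived from sequencing read proportions per bin multiplied by bin number.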

Protein stability index, by site and new letter:
R15: L 4.49; M 4.3; N 4.39; P 4.17; Q 3.98; S 5.22; T 4.76; V 4.97; W 4.16; Y 4.08
R16: A 4.54; C 4.52; D 3.61; E 5.2; F 3.7; G 4.74; H 4.4; I 4.38; K 3.6; L 3.86; M 4.63; N 4.91; P 4.75; Q 5.08; S 5.12; T 4.94; V 3.62; W 4.22; Y 4.31
H17: A 4.71; C 4.16; D 5.08; E 4.11; F 4.41; G 4.97; I 4.5; K 4.23; L 4.67; M 4.21; N 4.16; P 5.17; Q 5.08; R 4.51; S 4.83; T 4.57; V 4.87; Y 3.99
N18: A 4.32; C 3.99; D 4.86; E 4.48; F 4; G 4.93; H 4.27; I 4.19; K 4.46; L 3.79; M 4.42; P 4.89; Q 3.97; R 4.31; S 4.91; T 4.27; V 4.32; Y 3.71
P19: A 4.59; C 4.61; D 4.77; E 4.65; G 4.46; H 4.3; I 4.92; K 4.95; L 3.91; M 4.71; N 5.13; Q 4.68; S 4.99; T 4.49; W 4.33; Y 4.06
K20: A 4.52; C 4.27; D 4.65

Source: the supplement of paper PMC10567573
